The nature of the data set: self-splicing fitness, log relative to wild type (ln ratio); higher = more splicing; Tetrahymena group I intron in knt gene, E. coli kanamycin selection, DiMSum; sequences stand for … in CUCUCU…GGAGGGAAAAGUUAUCAGGCAUGCACCUGGUAGCUAGUCUUUAAACCAAUAGAUUGCAUCGGUUUAAAAGGCAAGACCGUCAAAUUGCGGGAAAGGGGUCAACAGCCGUUCAGUACCAAGUCUCAGGGGAAACUUUGAGAUGGCCUUGCAAAGGGUAUGGUAAUAAGCUGACGGACAUGGUCCUAACCACGCAGCCAAGUCCUAAGUCAACAGAUCUUCUGUUGAUAUGGAUGCAGUUCACAGACUAAAUGUCGGUCGGGGAAGAUGUAUUCUUCUCAUAAGAUAUAGUCGGACCUCUCCUUAAUGGGAGCUAGCGGAUGAAGUGAUGCAACACUGGAGCCGCUGGGAACUAAUUUGUAUGCGAAAGUAUAUUGAUUAGUUUUGGAGUACUCGUGGUCG
The procedure, abridged: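 Pooled colonies went to amplicon sequencing on an Illumina HiSeq 2500 after six replicate transformations. The plates were LB agar with 100 μg/mL carbenicillin, 50 μM IPTG and 0.2% rhamnose, with or without 25 μg/mL kanamycin, incubated overnight at 37°C or 30°C. The E. coli BL21(DE3) library had all eight P1ex-region intron nucleotides randomised, the intron placed in the knt kanamycin-resistance gene on pET-22b(+). DiMSum fitness is the error-weighted combination of replicate fold changes, kanamycin against none, normalised to wild type.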

± gives the uncertainty stated by the source.

As to UCACAGCAAUAUUACGCUUG, the “self-splicing fitness (ln)” value reads like this: (30 °C) -2.14 ± 0.12; (37 °C) 0.263 ± 0.1. In the same order, the values of UCUGAGCAAUAUUACGAGCU are -2.99 ± 0.24 and -2.23 ± 0.47. For AAGGAGCAAUAUUACGUAGC, the “self-splicing fitness (ln)” value (37 °C) is -2.18 ± 0.42. With CACAAGCAAUAUUACGCCUU, the “self-splicing fitness (ln)” value reads like this: (30 °C) -3.72 ± 0.18; (37 °C) -1.34 ± 0.14. As to ACUUAGCAAUAUUACGGCGA, the “self-splicing fitness (ln)” value runs as follows: (30 °C) -1.21 ± 0.21; (37 °C) -0.343 ± 0.21. In the same order, the values of UGAAAGCAAUAUUACGCGGC are -3.44 ± 0.33 and -2.07 ± 0.24. In the same order, the values of AAAUAGCAAUAUUACGCACC are -1.34 ± 0.21 and -0.223 ± 0.23. With UCCGAGCAAUAUUACGCGGU, the “self-splicing fitness (ln)” value by setting is: (30 °C) -3.33 ± 0.26; (37 °C) -1.58 ± 0.17. For CGGAAGCAAUAUUACGGUGU the same measures were -3.77 ± 0.18 and -2.1 ± 0.12.

In the case of UUAGAGCAAUAUUACGACCU, the “self-splicing fitness (ln)” value was -3.64 ± 0.41 (30 °C) and -1.49 ± 0.43 (37 °C). In the same order, the values of ACGUAGCAAUAUUACGCGGU are -3.63 ± 0.16 and -2.33 ± 0.17.

ACUAAGCAAUAUUACGCGUC: the “self-splicing fitness (ln)” value runs as follows: (30 °C) -4.43 ± 0.41; (37 °C) -2.1 ± 0.22. In the case of GAUUAGCAAUAUUACGCUCU, the “self-splicing fitness (ln)” value runs as follows: (30 °C) -1.26 ± 0.41; (37 °C) -0.272 ± 0.27. Consider AUUAAGCAAUAUUACGGACA, for which the “self-splicing fitness (ln)” value by setting is: (30 °C) -0.398 ± 0.22; (37 °C) -0.339 ± 0.2.

On to GCCCAGCAAUAUUACGCCGU, for which the “self-splicing fitness (ln)” value is -0.724 ± 0.092 (30 °C) and -0.492 ± 0.094 (37 °C). On to CAUGAGCAAUAUUACGUCGG, for which the “self-splicing fitness (ln)” value is -2.94 ± 0.18 (30 °C) and -1.57 ± 0.21 (37 °C). As for GGGAAGCAAUAUUACGUUAG, the “self-splicing fitness (ln)” value is, setting by setting: (30 °C) -2.72 ± 0.27; (37 °C) -0.794 ± 0.24.

In the case of AUGGAGCAAUAUUACGGUUU, the “self-splicing fitness (ln)” value (30 °C) is -2.56 ± 0.26 and the “self-splicing fitness (ln)” value (37 °C) is -2.26 ± 0.21.

For CGAAAGCAAUAUUACGAAAC, the “self-splicing fitness (ln)” value (30 °C) was -2.85 ± 0.19 and the “self-splicing fitness (ln)” value (37 °C) is -2.14 ± 0.21. In the same order, the values of UACUAGCAAUAUUACGCUCA are -0.532 ± 0.095 and 0.288 ± 0.13. On to GGCCAGCAAUAUUACGCCGG, for which the “self-splicing fitness (ln)” value by setting is: (30 °C) -3.21 ± 0.17; (37 °C) -1.99 ± 0.23.

As to UAUGAGCAAUAUUACGAGCA, the “self-splicing fitness (ln)” value was -2.47 ± 0.17 (30 °C) and -2.09 ± 0.31 (37 °C).

With GCGCAGCAAUAUUACGCACU, the “self-splicing fitness (ln)” value was -1.97 ± 0.13 (30 °C) and -1.23 ± 0.12 (37 °C). Turning to CCGCAGCAAUAUUACGCUAU, the “self-splicing fitness (ln)” value is -3.78 ± 0.3 (30 °C) and -3.04 ± 0.25 (37 °C). In the same order, the values of ACCAAGCAAUAUUACGUCUA are -1.29 ± 0.11 and -0.982 ± 0.1. In the same order, the values of GAUUAGCAAUAUUACGACAA are -0.938 ± 0.17 and -0.154 ± 0.14. For CGGUAGCAAUAUUACGGGGA the same measures were -2.53 ± 0.24 and -3.03 ± 0.47. With UAUCAGCAAUAUUACGGAAU, the “self-splicing fitness (ln)” value was -2.23 ± 0.1 (30 °C) and -1.27 ± 0.12 (37 °C).

On to ACAUAGCAAUAUUACGUACA, for which the “self-splicing fitness (ln)” value reads like this: (30 °C) -2.25 ± 0.16; (37 °C) -1.25 ± 0.12. In the same order, the values of GUACAGCAAUAUUACGCCGU are -2.95 ± 0.21 and -1.06 ± 0.16.

Regarding UGAUAGCAAUAUUACGUGCC, the “self-splicing fitness (ln)” value is -2.61 ± 0.2 (30 °C) and -1.26 ± 0.2 (37 °C). On to UAACAGCAAUAUUACGCACU, for which the “self-splicing fitness (ln)” value was -1.26 ± 0.06 (30 °C) and 0.231 ± 0.087 (37 °C). For AGUCAGCAAUAUUACGUCCC the same measures were -1.52 ± 0.22 and 0.485 ± 0.27.

Regarding GUGAAGCAAUAUUACGUCCU, the “self-splicing fitness (ln)” value was -0.476 ± 0.12 (30 °C) and 0.382 ± 0.18 (37 °C).

Take GUACAGCAAUAUUACGUUAC: the “self-splicing fitness (ln)” value is -3.89 ± 0.36 (30 °C) and -2.27 ± 0.28 (37 °C). For GUUCAGCAAUAUUACGCGGA the same measures were -4.19 ± 0.42 and -2.54 ± 0.23. For CGUGAGCAAUAUUACGUCAA the same measures were -2.01 ± 0.24 and -1.35 ± 0.2. For CCGUAGCAAUAUUACGUCCU the same measures were -3 ± 0.24 and -2.62 ± 0.3. As for GUACAGCAAUAUUACGUGAA, the “self-splicing fitness (ln)” value is, setting by setting: (30 °C) -3.94 ± 0.13; (37 °C) -1.51 ± 0.11.

In the case of CUCGAGCAAUAUUACGGAAA, the “self-splicing fitness (ln)” value (30 °C) was -2.9 ± 0.28 and the “self-splicing fitness (ln)” value (37 °C) was -1.37 ± 0.16. As for CUUGAGCAAUAUUACGGACA, where the note is “30 °C”, the “self-splicing fitness (ln)” value was -2.41 ± 0.37. For UUUGAGCAAUAUUACGGGAG, the “self-splicing fitness (ln)” value by setting is: (30 °C) -3.55 ± 0.28; (37 °C) -1.99 ± 0.19. With UAGGAGCAAUAUUACGUAGC, the “self-splicing fitness (ln)” value was -3.98 ± 0.24 (30 °C) and -2.74 ± 0.21 (37 °C). Consider GGUUAGCAAUAUUACGGACU, for which the “self-splicing fitness (ln)” value (37 °C) is -1.31 ± 0.23. In the case of CCCAAGCAAUAUUACGAAUC, the “self-splicing fitness (ln)” value was -2.81 ± 0.24 (30 °C) and -2.36 ± 0.27 (37 °C). CAGCAGCAAUAUUACGCUGC: the “self-splicing fitness (ln)” value (30 °C) was -3.06 ± 0.22 and the “self-splicing fitness (ln)” value (37 °C) is -2.36 ± 0.2.

As to GGUUAGCAAUAUUACGCUCU, the “self-splicing fitness (ln)” value by setting is: (30 °C) -2.24 ± 0.18; (37 °C) -0.596 ± 0.17. In the same order, the values of UGCUAGCAAUAUUACGGAAU are -3.98 ± 0.39 and -2.97 ± 0.29. In the same order, the values of ACUAAGCAAUAUUACGCCCA are -0.779 ± 0.11 and -0.482 ± 0.13. Turning to CAUGAGCAAUAUUACGGCUG, the “self-splicing fitness (ln)” value was -0.641 ± 0.073 (30 °C) and -0.532 ± 0.12 (37 °C). Take UGAAAGCAAUAUUACGUCCG: the “self-splicing fitness (ln)” value reads like this: (30 °C) 0.111 ± 0.1; (37 °C) 0.472 ± 0.14. For the sequence UCAUAGCAAUAUUACGCGGU, the “self-splicing fitness (ln)” value was -3.43 ± 0.25 (30 °C) and -2.2 ± 0.25 (37 °C). For GCUAAGCAAUAUUACGGCUU the same measures were -0.732 ± 0.1 and -0.973 ± 0.16. In the same order, the values of ACUGAGCAAUAUUACGUUUG are -3.97 ± 0.21 and -2.53 ± 0.18. For ACCGAGCAAUAUUACGGUGU the same measures were -2.88 ± 0.13 and -2.15 ± 0.12. For AGAUAGCAAUAUUACGGUGU, the “self-splicing fitness (ln)” value is -2.01 ± 0.096 (30 °C) and -1.15 ± 0.1 (37 °C). On to AACUAGCAAUAUUACGUCGU, for which the “self-splicing fitness (ln)” value is -1.8 ± 0.055 (30 °C) and -1.03 ± 0.067 (37 °C). For GGCGAGCAAUAUUACGUCUU, the “self-splicing fitness (ln)” value reads like this: (30 °C) -0.851 ± 0.047; (37 °C) -0.197 ± 0.06.

For the sequence ACAAAGCAAUAUUACGGAGU, the “self-splicing fitness (ln)” value (30 °C) was -3.79 ± 0.15 and the “self-splicing fitness (ln)” value (37 °C) is -2.9 ± 0.17.

Take UGCUAGCAAUAUUACGAGAU: the “self-splicing fitness (ln)” value (30 °C) was -3.93 ± 0.31 and the “self-splicing fitness (ln)” value (37 °C) is -2.41 ± 0.3.

Take GUGCAGCAAUAUUACGCUAA: the “self-splicing fitness (ln)” value (30 °C) was -0.546 ± 0.17 and the “self-splicing fitness (ln)” value (37 °C) is 0.418 ± 0.15. With UUGUAGCAAUAUUACGACAC, the “self-splicing fitness (ln)” value was -1.44 ± 0.22 (30 °C) and -1.48 ± 0.32 (37 °C). For AAAAAGCAAUAUUACGGAUC the same measures were -0.895 ± 0.068 and -0.418 ± 0.092. In the same order, the values of UGGAAGCAAUAUUACGUUGU are -3.64 ± 0.37 and -2.88 ± 0.3. CGUUAGCAAUAUUACGGUCC: the “self-splicing fitness (ln)” value (37 °C) was -1.08 ± 0.48.

Consider GUGAAGCAAUAUUACGUACG, for which the “self-splicing fitness (ln)” value (30 °C) is -0.64 ± 0.16 and the “self-splicing fitness (ln)” value (37 °C) came to 0.312 ± 0.15. In the same order, the values of ACAAAGCAAUAUUACGGCUA are -0.14 ± 0.054 and -0.0776 ± 0.062. For AGCUAGCAAUAUUACGAGUC the same measures were -3.89 ± 0.22 and -2.08 ± 0.19.

Turning to UCCCAGCAAUAUUACGCUAC, the “self-splicing fitness (ln)” value (37 °C) was -2.27 ± 0.32. Take CGGGAGCAAUAUUACGGCAG: the “self-splicing fitness (ln)” value by setting is: (30 °C) -2.71 ± 0.21; (37 °C) -1.12 ± 0.26. With UAAUAGCAAUAUUACGGAUG, the “self-splicing fitness (ln)” value is, setting by setting: (30 °C) -1.58 ± 0.08; (37 °C) -0.737 ± 0.087. In the same order, the values of AUUAAGCAAUAUUACGAAUU are -2.27 ± 0.16 and -1.46 ± 0.21. Regarding CACGAGCAAUAUUACGGAGG, the “self-splicing fitness (ln)” value by setting is: (30 °C) -4.5 ± 0.36; (37 °C) -2.75 ± 0.28. On to AGAAAGCAAUAUUACGAAGA, for which the “self-splicing fitness (ln)” value runs as follows: (30 °C) -2.95 ± 0.24; (37 °C) -2.27 ± 0.33. In the same order, the values of CUCUAGCAAUAUUACGCUGG are -3.13 ± 0.23 and -1.51 ± 0.32.

As to GCGGAGCAAUAUUACGUGAU, the “self-splicing fitness (ln)” value by setting is: (30 °C) -2.01 ± 0.47; (37 °C) -1.42 ± 0.3.
